# Assay results reported in the DeepSol protein solubility set.
# Assay: soluble on expression in E. coli; label from the status in PepcDB or PDB records
row,Sequence,soluble on expression in E. coli
1,MKTSSASKSHYTGQFPQGDLQPKTPIPVGRNSEIPKDAALSAQLKGLRPLDRKPSKMPTSSSDLQAVNKMIAENRSNDVGKGQFLLSTQSLGSAERVDSQNYHSRNESGKAPLFFSEFATEKPSLQSVKSLSQGKQDYYAVRHVGKRGRDLFTDEPIEGENSKLGRLKTSPLLSTQSQGTRAIRAFAATATIDKSRGEYVARLHRHVVEALGDEGGVVHLLRPTRDHYAEDSTLNFFTFCEQTELASSLNSLEAISAKKEDRKPIVFTDHKSLVGLSRTSRTEASPIGRLVQQPYFVTSDLKRGDKVVITDDHIQAGGSMLAMEAAAKEAGVDVLALATLSAHPFSPQLTMSSEVSAFLDETLAAWDPQGKVTERLAAIGMPREKLTNSEAMILIAYAIDPASDSAILRFESIQNNLFKRAHLHNVGIDPDAPDTLEQMQKLSSMQEMAGTDSARHFVDDAKVLEGEHDSLIPILKMKPASP,not soluble
2,MIKSITIRTSREFEIIDITKEVERVVRESNVKSGIVVVFTRHTTTALTINENESGLKRDIEEILSKLVPKGMNYFHDRIDNNAHSHLRGILLGPSLTIPVEDGRLLLGTWQSILFVELDGPRTREVYVKVCECLEHHHHHH,soluble
3,MGSDKIHHHHHHMLTTLAINNYRSLRDIRLPLGRLNLVTGANGSGKSNLYKALRLLAQTAQGGVVNALAQEGGLDSCFWAGPENLTKGMLSGDTEITPTVRQQTKRLKLGFAGDEFSYLIELGLPKPDNTTLFGLDPQIKREAIWVGNKYRPAAVLVERRGPMVKGRAQQRGQDGWQSLNQHMQHGDSIFTELSDPSRTPEVLRLRDSIRAWRFYDHFRSDSEAPARQPQLGTRTPVLHHDGRDLASAIQTIFEIGDRESFDEAVSDAFPGAHVTIGYQAGGLLSVNFHQQGLLRPLNAQELSDGTLRYLLLIAALLTPRPPELMVLNEPETSLHPDLLPALARLIAKATKVCQLWVVSHANRLINALNEFEQCQLIELDKQLGQTRIVGQDLLSTPGWNWQQKAQG,not soluble
4,MGSDKIHHHHHHMYTDADRSREVVPEKDGHDKKWRDEFGRDYGRIIHSASFRRQQGKTQVFPSRESDFFRNRLTHSLEVAQIAQGIAERINYDYDKDLGGKIDPRLCATAGLVHDIGHPPFGHNGESALDKAMQRYGGFEGNAQTLRILTRLEKKLRYAEPLAGDDRAGLNLCHRTIAATLKYDNEIPAIRKAADGFVKGYYGSEKIIVDRVKASVLNGYVLGAEEKFCTIECSIMDLADDIAYSVYDLEDCFKVGFLSPAEMLASDDALLSAVAKRASKPMKRTVTINEIQAVFMEIFSEIIEQPAEDADSPLDGIVIEDDIAQQAKRDESLLTFAEAYRTSKVMSEDGYKRTEFSSELVHQFISGVELKAHKECPSLSQIYLPEKLMLRKEVLKQYTFVAAIYAPRVKLGEYRGYDLVTDIFKALMGDRGDLLMPADVRGRIRKAPNVSVKAREVCDFVAGMTDRYAMEFWARLNSDAAESMFKPI,not soluble
5,MGSDKIHHHHHHMSQRENPQNSSQDVADLLGGAFAGHTMQRLRTPDGKYRYSYVSSGVQASFGLDPEALMQLQDVDHSWLHPADRSLFIAALEQSAAALTRLDEEVRVSLDDGTFKWVRSIGNPRRMRDGTVIWDGVALDVTDRHEASEALERTLTQVRQNETSEGRFSYIAASDVLDRLSSLRAAVEQLDLSVPTAAHVHAVFQKFERGLFAARDLLDDTALDETRPTDHEPHKDISATLTPRQQDILGHVSRGATNRDIARAMDISEGTVKLHISAILKRTGAQNRTEAALAWTSSNGTPRR,not soluble
6,MTQDTQLTFEARDEFNRKSIAEKVITLLRSDITVSPLVIDGSWGLGKTEFCQKLLSLMSTEETHHLIYIDAFKADHADEPLLTVLAKVLEVLPSQEEQQGLIQKAIPALRYGLKTGGKALVAHILRQDTDSIINGFDEEVKQVADKAIDASVESLLKDHVEAESSLQALQQALKSIAEQKPIVLFIDELDRCRPNFSVLMLETIKHTFDVEGVQFVLITNTNQLKASINHCYGPTIDAQRYLDKFIRFSFTLPHTTNENRHDVTMASVTHYKNLVAKSERLQGLSLDRDSDFWLVAQVINTNNISLREVETLVRHIEIYQALFDDQPLSNHTQWAYRLMALLGVLLISFKPNLAKSALINNLDAKDLGNFLGVHSLPKLENNQHPTHCDTLVFMLASECKYNSDFYVPDNPQDKERWEGEANEYFRGRYNLTRNGRMSLVTGAIKGLGLSVNLEHHHHHH,not soluble
7,MGSDKIHHHHHHMRGWILYKETATQLKPEWYEIERLLAAAKADNIELEVYAPDEFDLTVTREDNKSILLNGQPVELPDFIIPRMGSGTTYFALAIIRHLERLGVYCLNPSKAIEIVKDKLFSQQLLAEKNLPTPKTMLVKFPVDIDLVERHLGFPVVIKTLSGSQGSGVFLSHKAREFDDLMQLIEATNKNANIILQEFIANSHGRDLRVFTIGGRVAGCYERRGQEDSFKANVSAGGSARPFDITPEIEWLATQTANILDLDVAGIDLLFDNGHYKICEANSSPGFEGLESCLNVDIAAQILHFIRIRLGMFNKDEKNSDPQLTHAGPALANNVTSSKAAE,not soluble
8,MGMRLICLNGWGGKLHDKLVPYIASSDPDILCLQEVVHTPAATQDWLSYRDHGVELPQRANFFRDVAEALPDHVAIFCPAAQGDLWQGETRYPSQFGLATFVRKSIAIIAQAQGFVHGVFSADGYGNHPRSRTAHAIRVFDFTTGQPVVIAHMHGLRDLEGKHDIPARLHQAKRLVQFVKNIAEDGDRVIVCGDFNVLPDSRTFAVLNELDLVELVTTRGFTDTRTSHYAKPNRYADYLLVNPAVKVSQFDVVRQPEVSDHCPLLLEFSMAGDPLEHHHHHH,not soluble
9,MLSIREYLEAGETTISNLLFDHYQKIGLKDDEFLFLLQLFRSQNAGDLFPDLMAIAETMGKTPDTIYKLLNQLVSRGFIRIETQQNQKGQMMDTYDLLPVFQKIQLFLQTSKEKQVVANHEDEIKQLYQGFEKEFGRPLSPIELEMIGQWLNTDHYSPELIRLALREAVLNQAYSLKYIDRILLAWERKNITTKEQVAADQKKRKDSMIQNEIEQQGQTQESLPKVTLHNWLNPEDSE,soluble
10,EPDLDDWFENDREDLRHFVGIYVLAHYRNRPSDVALLADAPHHEARVLRLKNGKIVTAIQIAKEGGIPKAVIDKMAKGYKPPGNIIPDMMVKHHYAKEFARLKGYRVVRIATHPDAMDMGLGSKALELLIKEAEEKGLDWVGSGFGASPELIRFWVRNGFAVVHLSPTRNPVSGEYTAIVIKP,not soluble
11,MDSDEVRKRKEYAERKVKERHAALRKEAEEKRKHTVEHRERVQSVLKREQIALQKRMQQLNEDEERKKVTLAKQHEVSSRIAAITKSPKSFAFGSSTPRTLAYLDNLPKSEQQYDKKLRPLDQGPSQTTSPTSTTSNTTKMGRLSMTPQRAPPASHRPAPAMASMTTSMYVTSSAPSTRQAKSISKPAAVTTKKVGSMMTQSVYTPTSRPATSSRLTMKQPARGASTSAARPNTATPSSSNNRRSMDQRKPPMPRKLPFGKPEAARKSASPVAAQEPTAPVVVVAPVEAIPEVPAVQEEVLTVEEPAAPAREAVVEEAPEAVVEQEEITVAPEAVVAEEQQIAPEATPTVIEEHHNEVTVAPEAPEIQEPSEPATEPIPEPNEPKDEEIQRNEEMFHEDTSESHLESSTNTSLADELISIGIDQSQEILPSKPEILELHYPLVEEQNAVIAPVGAGEGSGVNDLIGVFGNDFINQNQPPPQQQQQQQRLVQFDEDTDSGKASPTSSETSSTTDEVTPRGAIEEEAAAEKITAPRVLPIVRSAEDIARKEKEIRESEERKSRLAAILAKSRGMASPMTNTLPPTADDIKGRCSHLHPLKRLPKRHRMSLEEQMMCSPVSLR,not soluble
12,MGTHSGHERNGESARGGALQRLERRLAAAWAEQDAYQIEQLAGMIYDRLVRSDPSAAATVLEQNAHRLAVAGKPAEAAELATRLIRHWRELEQRPFYLARLQQMVLEPLQALSGVEAARARTMVLEAVLAWKRASATVDTEEAAPAELAPVQDALVDAYVLCGEWARAQYQVVCRGGPAERDLAFIDEQLGPHLANDVERMLARTRLVLFYVLAGNLKAGRALVEEIQRKHPTAPMTNFVVILMQVLERARNVDSSKRRLLRNFCDDLKRVYHWAFSLDPELDAMLDDVLKAQGL,not soluble
13,MAPQNKPYFTYNNEIIGEATQSNPLGNVVRTTISFKSDDKVSDLISTISKAVQFHKNNSASGENVTINENDFINQLKANGVTVKTVQPSNKNEKAYEAIDKVPSTSFNITLSATGDNNQTATIQIPMVPQGASTPTDTTQNPQINWTKGGQAQSSSLNGQVFQVAVGSNFNPLNFTNSNGENIIVSAQQSKNNTTFASIEATSNPVNTSEAGRYYNVTLTATGNTGKKTTATYTVLITSSQKQTLYGNGESTISTYSIYGNNVLSNSTTFKDGDQVYVSDQTKTVGGVSYSQVSPKSKNDANSSNIWVKTSALVKPAGDTNVKTYPVMVDSRAYDKNGNYLGHMYYAYDNIDIVPTVVTINGKTYYKVANKDEYVRVTNITGNQRTLKHNAYIYWSSYRRTPGTGKMYRGQTVTTYGPQMKFKNGKKYYRIEGCRNNNKRYIKAVNFYLEHHHHHH,soluble
14,MAVKFFGQFLVEKGVVSRETLLQAIELQESVNLSFGATSLAMGILTEADIERIHNAQRIEDLRFGDMAVKLGLLTSEQMMQVLTRQKNTHLYIGEALVKVGSFQADELPKYLEEFKADQAQYATDTVVIPTGVSEPKIWEMVADLSYKMLTRVALLVFRPEPCFVADRVPAMDVYATMDFTGDISGRYFMGVTAATQKKIAKAILKEPNVDNEPKEILDDTVMEFVNVALGNIAAKAAQSGKSMEIAPPEIIEAPDGIQVPDGHKALCFPVCLSDGDRIELAVFIQQLEHHHHHH,soluble
15,MDFSGKNVWVTGAGKGIGYATALAFVEAGAKVTGFDQAFTQEQYPFATEVMDVADAAQVAQVCQRLLAETERLDALVNAAGILRMGATDQLSKEDWQQTFAVNVGGAFNLFQQTMNQFRRQRGGAIVTVASDAAHTPRIGMSAYGASKAALKSLALSVGLELAGSGVRCNVVSPGSTDTDMQRTLWVSDDAEEQRIRGFGEQFKLGIPLGKIARPQEIANTILFLASDLASHITLQDIVVDGGSTLGA,soluble
16,MVRVAVIGGSGVYDFPAENKRELTVETPYGKVNLTIGHVAGEEVAFLARHGKGHSVPPHKVNYRANIWALHELGVERIVATSAVGSLNPNMRPGDFVILDQLIDFTVSRPRTFYDGEESPHDRKFVAHVDFTEPYCPEIRRALITAAKDLSLPYHPKGTYVCTEGPRFETAAEIRAYRILGGDVVGMTQCPEAALARELEMCYATVAIVTNYAAGISGKKLTHAEVVELMNKKTREITALITKAIPLIPKERNCPCKDALKGATG,soluble
17,MAHHHHHHMGTLEAQTQGPGSMKLLFVCLGNICRSPAAEAVMKKVIQNHHLTEKYICDSAGTCSYHEGQQADSRMRKVGKSRGYQVDSISRPVVSSDFKNFDYIFAMDNDNYYELLDRCPEQYKQKIFKMVDFCTTIKTTEVPDPYYGGEKGFHRVIDILEDACENLIIKLEEGKLIN,soluble
18,AAQEKVVKLKIVQTSDVHGNYYPYNFITRKDWQGSLARIYAFVEKEREQYKENLILLDNGDILQGQPTAYYYNYIDTVSPHLCAEMMNYMKYDAGNMGNHDVETGRAVFDRWINTCDFPVLGANIIDISTGEPHLPPYKVMERDGVKIVILGMITPAIPAWLSENLWKGLRFDDMEETARKWMKIIREKENPDLMIGLFHAGQEAFKMSGKYNENASLSVAKNVPGFDIVLMGHDHARECKKVMNVAGDSVLVIDPASNGIVLSNIDVTLKLKDGKVRSKDIKGVLTETKDYGISEDFMKNFAPQYDTVRNFVSK,not soluble
